Experimental data published in article PMC8213733, “Subtype-specific collaborative transcription factor networks are promoted by OCT4 in the progression of prostate cancer” (Nature Communications, 2021).

Molecular target: T1, Flag-AR (human (cDNA of PC cells, said of the …, UniProt P10275 1-920))
T1 construct: androgen receptor, full length in Flag-tagged pcDNA3.0; also called androgen receptor; source: 293T, transfected, cells treated with 10 nM DHT or vehicle, purified (Flag M2 agarose beads, glycine elution)
T1 sequence (looked up): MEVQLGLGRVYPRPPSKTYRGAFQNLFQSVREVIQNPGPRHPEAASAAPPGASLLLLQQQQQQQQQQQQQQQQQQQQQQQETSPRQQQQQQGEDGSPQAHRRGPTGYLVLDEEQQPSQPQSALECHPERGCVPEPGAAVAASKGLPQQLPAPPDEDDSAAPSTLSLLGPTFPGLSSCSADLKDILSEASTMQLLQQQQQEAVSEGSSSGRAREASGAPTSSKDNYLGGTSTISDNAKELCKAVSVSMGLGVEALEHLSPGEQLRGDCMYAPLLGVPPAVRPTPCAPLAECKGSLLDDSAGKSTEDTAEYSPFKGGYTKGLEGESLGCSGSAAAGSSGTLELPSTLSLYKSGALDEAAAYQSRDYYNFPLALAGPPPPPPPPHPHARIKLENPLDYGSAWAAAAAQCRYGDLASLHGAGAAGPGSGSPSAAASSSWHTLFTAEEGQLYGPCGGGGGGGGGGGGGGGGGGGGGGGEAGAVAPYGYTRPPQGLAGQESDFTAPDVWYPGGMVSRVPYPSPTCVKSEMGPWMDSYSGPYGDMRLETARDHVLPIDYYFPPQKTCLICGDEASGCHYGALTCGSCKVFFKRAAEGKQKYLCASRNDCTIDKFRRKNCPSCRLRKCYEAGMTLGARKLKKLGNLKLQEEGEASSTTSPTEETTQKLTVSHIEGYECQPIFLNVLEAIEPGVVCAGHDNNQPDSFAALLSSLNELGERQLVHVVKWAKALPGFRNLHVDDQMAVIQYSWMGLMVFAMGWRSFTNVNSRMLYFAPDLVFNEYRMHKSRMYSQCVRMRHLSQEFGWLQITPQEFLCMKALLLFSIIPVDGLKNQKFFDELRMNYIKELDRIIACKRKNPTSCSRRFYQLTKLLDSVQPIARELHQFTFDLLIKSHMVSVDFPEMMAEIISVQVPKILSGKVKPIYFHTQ
Assay: co-IP; in vitro binding assay: purified proteins in 20 mM Tris-HCl pH 7.5, 150 mM NaCl, 0.1% Triton X-100, 1 mM DTT, 4 °C, 5 h; FOXA1 immunoprecipitated, bound proteins by western blot; with or without ribavirin-phosphate
Details: both partners purified

B1: Flag-FOXA1 (natural protein, UniProt P55317 1-472, looked up)
chain: MLGTVKMEGHETSDWNSYYADTQEAYSSVPVSNMNSGLGSMNSMNTYMTMNTMTTSGNMTPASFNMSYANPGLGAGLSPGAVAGMPGGSAGAMNSMTAAGVTAMGTALSPSGMGAMGAQQAASMNGLGPYAAAMNPCMSPMAYAPSNLGRSRAGGGGDAKTFKRSYPHAKPPYSYISLITMAIQQAPSKMLTLSEIYQWIMDLFPYYRQNQQRWQNSIRHSLSFNDCFVKVARSPDKPGKGSYWTLHPDSGNMFENGCYLRRQKRFKCEKQPGAGGGGGSGSGGSGAKGGPESRKDPSGASNPSADSPLHRGVHGKTGQLEGAPAPGPAASPQTLDHSGATATGGASELKTPASSTAPPISSGPGALASVPASHPAHGLAPHESQLHLKGDPHYSFNHPFSINNLMSSSEQQHKLDFKAYEQALQYSPYGSTLPASLPLGSASVTTRSPIEPSALEPAYYQGVYSRPVLNTS
notes: FOXA1, full length in Flag-tagged pcDNA3.0; source: 293T, transfected, purified (Flag M2 agarose beads, glycine elution)
- binding result: binds
